Test results published in a protein production outcome set (Wang et al. 2014).

Experiment: label from the status in PepcDB records

Row | Sequence | protein production
1 | EDDYYYPSVKLEFVTVKAGTDGSIQTLIPDNGEALTVSKDRTGSAISPNTSRRVMSNYETLSNGHTATAVIYSLQSLVTPTPKPADDPTYRDGLKHDPVDVVSIWLGRGYLNMILNLKVNGGKQHVFGIVEDLSEFETNGTVNMLLYHDANGDEEYYNRRAYLSVPLDKYADAENPGQKITIKFKYYTYDKDGTAIESGKYCNPGFEYVPDKN | not failed
2 | MQINLSDLHLLRPLWLLLIIPGALLPWLWQRRHDLLARLRGTIAPHLLTHLLVTPQDSQRLRPVHLLSALLVLGALAAAGPTWEQDRPDFLHNRAPLIIALDLSPSMNASDLPPSRLEAAKHKLQQLVQQRRGARTGLIAYAGSAHLVLPASDDPALLDSFIQALGSDLIQRPGKDVLGVIRQAQRLLQAEHSPGSLLLISDGADTSQLAAIKQQLAGSPLQVLILAAGSSDGGIIRDASGQPLTDSDGRPQLGRFDSAALKQLAAASDAPLGSLTLNDDDLDWVQLHAQQHFTAASAPDRQLQWKDAGYWLCWPLLLLAFCCVRRGWSLNWLGALLLGLGLSLQAPTARANTLADAFFSADQQGRWAFEHGHYPAAAALFTDPYWKGIAAYKAADFDLALASFARLDSAAAYFYLGNIHVRRFKFDEAIAAYQQALKLQPRFAEASANLALAQALKKDTESAQQNAPEVKPDAIKFDKPAGKGQNKKVETQEAASDELWLQNLSTSPAAFLRQKFSLQDLDNTTPQVTP | failed
3 | MCRGPLGSYESLTRPSFAFIVISPSATLLTHAPGSQEPHVSRHNRRRSTLHKRATVFGGGTVAVAAVVATVNIASADQVSPTPRTASKADHAVFVQGNELAGNTIHVFRRGDDGKLTAAGKYATGGKGGDQVDAPTDSLASQGSLVYDRRSGRLLALNAGSGTLTSYAVHGQKLTDRQTVPTGGDFPVGIAVSGDLAYVMNAGGAGSVQGFRITTMGLKPLSGSLRTLGLKNEKVPLFSSSPGQAAFTPDGRNLVVTTKSANTVEVFPIGRDGRPAHKPVVNKSAGMVPFAIAFDKTGRMLVAEAAESTVSTYKVRRNGELQVLQKPLPNGQDTLCWLERAGDFFYGGNTGNSTVSGYRMDARGRLALTNEAGIAAAPSAKSQGVIDIAVAADKFVYVQNATSGTVDGFRVGRTGALTKVTTVTDLPAFAESGMEGIAAV | failed
4 | MILINLFITFLKIGLLNFGGGNGIAAIINNEIINNKHWITKEEFVNMITISRITPGPIATNIATYVGMKTAGIAGAIIATVALITAPIIIMIIILLILHKIGFLNYCLENLKPIIVALWIITIIILLENTYLKIENNKTELLKTLAIVGINFFILFFYNKISPALVIILSGFFYTLI | failed
5 | MADFQVVVGDDDGTAYSFEVDGQDANRFIGRAIGETVDGDAVGLPGYELEITGGSDQSGRPMHGDINGAETAAILSEGGVGFNPTVDGERKRVTVRGAEVSEDTRQINASIVSRGEQSIDDLLGGEDDE | failed
6 | MENKPDYFHHIEHRKFQSSSKITLWLSLVITMIFTVVEFVGGIVSNSLALLSDSFHMLSDVLALGLSMVAIYFSSKPPTKNYTYGFLRLEIIVAFLNGLALIVISLGIMYEGIMRIIHPRPVESGIMILIAFIGLIANIVLTIILMISLKKENNINIQSALWHFIGDLLNSLGIIVAFVLIHFTGWNIVDPIISILISLIILRGGYKIIKNASKVLMERVPDRYDTDEIMGAMKDVEGVIDIHEFHLWSVTTNQSSLSAHVVLSDDYIKSPYATINKVSDLLKTQYGLEHVTLQIENINLNHLDEEYFKQLQE | failed
7 | MLTTNASSKIFSKASTAELVGHTRKVHCLSWNPKGGLLGSGGVDCVARIWDVEKLQQKAELEGHTSSIEQLKWDPTANVFFVSASLDHKVLFWDLRARNSEPVASVETQGENINLAWSQDGVYCAVGDKDDNLSFIDVRKFDFFERFQFAEEVNEFKWSPSGPFFFMTLGKEVLVFRWPTMEQQLRLQVHADRCYCLEFDRSGRYFALGGADSIISLWETEYMLCTWTVDRLEYPIRTISFSHDGQFIAAGSEDSVIDISDILNGRQTYALGVKGATNVVAWHPSRHLLAYATEEEYSRDGVAIHLYGTISKDNI | failed
8 | MLDDVLALIREHDRFFITTHLGPDGDAVGSQLALGRFLEKMGKSVAMVNADEVDYNLDWMPGAGDIAVFDGSLGQHEALAEAEVAFVLDTNDEERIGKVGSLVRDATATTVLVDHHLEPEHWFDVFFVREEAAATGELVYEIIDGLAPDLIDEGIATALYTAIMTDTGSFRYSSVTPALHRSVADILERGGIGPAPIHETIYDRKSMPGLRLLGRMLNRIRLRYNGQLGYSVVTQRMVEDTGASWDDKQGFVNYVLSIEDVKTALLFSETDDGAKISFRSEADVRVDQWARHFGGGGHRNAAGAYVKRPTFEKTIETVIDAASDYIAFDARHAPDDDLSPEDQSYLETLLDDPSDSPLEHHHHHH | failed
9 | MDNKVILVGGFHEIIELCEDNDIEIAGIIDNYLTNDTYWGYPIIGTDDKAKVLFETYKNVPVLITPDVPHVRYKLYHYYKSIGFQVASLISRDASISRSAIIGEGTIIQRGANLSSNIKIGQMVKVNTNANIMHDCLIGNYVTVAPNAVLLGKVEIDDKAYIGANATLLPSVKIGENVTVGAGSVVTKSVRPNTVVKGSPAK | failed
10 | PPHYDYAIGIRGDSMLPKYEQGDMLYIVDKGMSTYSGQLCIVVHNGNTYFKKVYTEHDGLRLVSLNKKYSDIFIGYPPAEDTYIKIYDVVGSFTPIEF | failed
11 | MSLTPWLSIVGISEEGWLALTPIAQQCILQADILVGSDRHFDLLPSLPGAEQWRWGSPFSATITQILERRGQSICILASGDPMCYGVGSLLAQRLPLTELQILPAPSAFSLACSRLGWALPEVETLSLCGRDPALLNALLYPGAKILALSADRSTPATIAEQLCQQGWGSSRLTVLEHLGGPKERKISEIAEHWSQPTIASLNTVAIECHARDRDLIVPPRLTGLPDAAYHHDGQLTKREVRAITLAALAPLPGQLLWDVGAGCGSIGIEWMRSDRRCRAIAIEQHPQRLQIITQNAIALGVPNLQVVAGSAPATLSGLPQPDAIFIGGGVTAPGVLDQCWQALPMGGRLVVNAVTLESEQVVLAGQQRWGGDLIRVAVQRAEPIGRFLGWKSLAPITQWTVKKTALEHHHHHH | not failed
12 | MDVMRSVLGMVVLLTIAFLLSVNKKKISLRTVGAALVLQVVIGGIMLWLPPGRWVAEKVAFGVHKVMAYSDAGSAFIFGSLVGPKMDTLFDGAGFIFGFRVLPAIIFVTALVSILYYIGVMGILIRILGGIFQKALNISKIESFVAVTTIFLGQNEIPAIVKPFIDRLNRNELFTAICSGMASIAGSTMIGYAALGVPVEYLLAASLMAIPGGILFARLLSPATESSQVSFNNLSFTETPPKSIIEAAATGAMTGLKIAAGVATVVMAFVAIIALINGIIGGVGGWFGFEHASLESILGYLLAPLAWVMGVDWSDANLAGSLIGQKLAINEFVAYLNFSPYLQTAGTLDAKTVAIISFALCGFANFGSIGVVVGAFSAVAPHRAPEIAQLGLRALAAATLSNLMSATIAGFFIGLA | failed
13 | DDSSDPKTSKSATSSEASSAAEAAPAELPTAEELNAILAVATDPAAPVEQKVATVQGGETAPELFETMTASKQESGANFQ | failed
14 | MKGLVELGEKAPDFTLPNQDFEPVNLYEVLKRGRPAVLIFFPAAFSPVCTKELCTFRDKMAQLEKANAEVLAISVDSPWCLKKFKDENRLAFNLLSDYNREVIKLYNVYHEDLKGLKMVAKRAVFIVKPDGTVAYKWVTDNPLNEPDYDEVVREANKIAGELVA | not failed
15 | MKTKNKILPEQEEEKTFQYRTYGKGELALLYLPNILQQSAVDRFNEWIEAAPGLKERLLATGMNPRARYYTPAQVRLIIEVLQEP | failed
16 | MKTVKDAEIFCQYIAHEYLGKRNYKLLEDIIDKRITIIGTGAHEVSRNIQELMTALNKEAELWDGTFIIEDEWYQGTELADNLFVVIGQIEGRQNSNDQLVYSFSSRVTFIIEYHDMQWKIIHVHQSVPDYSQGDDEFFPQRIVEESNAQLKKEIAEKTKELEMSNQQVIYNLRHDYLTGILNRPSLEKEVTEAMSNHQYGVILVLDIDYFKEVNDNNGHPYGDEVLIKLANTMQESFKSGICGRIGGDEFIIYLALDDANYDAIEKTIKEFKQNWQKNITTIDRSSTITLSIGGAYYPKHGKNYQELWSNADKALYLSKNNGRNRISIYQL | failed
17 | MKQKRLTFLLLLISNLFCASAQKWYKPEIDLKVEELLSQMTVEEKLGYIGGIDWMYTKSIDRLGIHRMRMSDGPQGIGTKGKSTAYPATVTLAATWNENLAYQYGKALGRDCRARNINVILGPAVNIYRAPMCGRNFEYMGEDPYLTSRICVGYIKGVQDQGVMATVKHFVANNSDYDRNNISNDIDERTLNEIYFPAYKAAIQEAEVGAIMTSYNLMNGIYTTENPWLLKEVLRNQWGFKGLVMSDWGSTHYCVPAARSGLDLEMAGGEKMNPKDMAYYLKTGDVTMDMVDEKVRHILRILIAFGFKDGTEADKSIALDDPQSVETA | failed
18 | MASDTPGFYMDKLNKYRQMHGVAITYKELSTSGPPHDRRFTFQVLIDEKEFPEAKGRSKQEARNAAAKLAVDILDNENKVDCHT | not failed
19 | MGGKLVSFIRSRLEIVQNIAAEDEGCKKAYYCMGSPLFALNAERMENNLVTLSGGISINKQLQKKGKPGVNVSPAFINEHNPEAIFISSFLSRPLNEFYELCQKYGIHADAVKKRQVYAVPAAWDFGNPRWILGLLYITDKLHPGKLEHHHHHH | failed
20 | MAAPRVIMAAPRVIMAAITGVTPEVVNRTRPERRDLADMRAAMKTGFTAVASVIGVGVAGLAYGVIEAHRFVVRHVEVPVLKPGSSPLRILHMSDLHLLARQETKRRFIRQLDALNPDLVINTGDNFCSADSLQPLLDDMSGLLQRPGTFVFGSNDYLVPKFKNPFSYLLWGRSQQATEPVPELPHEELRQAFTSAGWLDLNDKSETLEVAGHRLTLRGTDDAHHDRDHYEEVAGPPDGEADLNIGVTHAPYLKILDAMVSDGMDIVFAGHTHGGQVCLPFTGAIITNCDLDTERAKGLSQHGRGGHTGWLHVSAGLGCSPFAPYRTFCRPEATLLTLVPRP | failed
21 | GMTGFVINTRRAPFDDWRLREALLLAFNFEFINDTVTGGVMPRITSYFSGTDLAYRPGTASGREAELLAPFAADLPPGTLEGYALPQGDGTARNRTNLRRAAQFLEQAGFRIEQGQLLGPDGAPLALRFLLRQGDSDMQTVLEIYTRALERLGIAAQIEKVDNAQYTARVAELDFDLTPFRRDLSLSPGNEQRLYWGSHSAGQPGTRNLMGAASPAIDAMIDRMLAATTEDELTAATRALDRVLTAGRYVIPIWR | not failed
22 | MKWRCLIYIETRGDILFMTKWFNVGKIVNTHGVRGEIRVISRTDFPEERYKVGNTLYISNEKGTDYLPVKVTSHRQHKTFDLLTFEGYNNVDEVEKFKGSLIKVPEEQLGELAEGEYYYHEIIGCSVVTEEGEALGTIKEILSPGANDVWVIKRPKGQDLLIPYIDDVVLQVNIENKLVTIHVMEGLLLEHHHHHH | not failed
23 | MLETYALKNGAVFISDAHFLPKSPHLIHTLKELLSAKPPQVFFMGDIFHVLVGYLPLDKEQQKIIDLIHALSEISQVFYFEGNHDFSMRFVFNSKVMVFERQNQPVLFQYDNKRFLLAHGDLFITKAYEFYITQLTSTWARFFLTFLNLLSFKTLYPLFKKLIYQKPVRLWELEPKELQSFIEKRLKAYQNYIKDLNIGSIDGIIEGHFHLKSGAKIPLNTPIYCPLPSFYYEQSLFKVSSSVLEPSQNKDA | failed
24 | MGREFIPLFEDWAATYDQTVQGLDIQYKEAFRGYDHILDAIVRKSGTHVLEFGPGTGNLTAKLLDAGKTVFGIEPSPAMRKLASDKLSGRTEIVDGDFLTFPEPPFQADTIVSSYAFHHLTDEEKRAAIKQYGKYLHLHDKIVFADTVFENAQAYQQAIDKARSQGFYQLANDLETEHYPTLDALKEMFTAEGFAVRFTQQNDFVWIMEAIKRLEHHHHHH | failed
25 | ASIYKNKKSHEQLSALKGSFCRNQFPGQSEVEHLTKVTGLSTREVRKWFSDRRYHCRNLKGSR | not failed
